Experimental data: a protein production outcome set (Wang et al. 2014)

experiment: label from the status in PepcDB records

**Q.** For “MMEERANLMHMMKLSIKVLLQSALSLGRSLDADHAPLQQFFVVMEHCLKHGLKVKKSFIGQNKSFFGPLELVEKLCPEASDIATSVRNLPELKTAVGRGRAWLYLALMQKKLADYLKVLIDNKHLLSEFYEPEALMMEEEGMVIVGLLVGLNVLDANLCLKGEDLDSQVGVIDFSLYLKDVQDLDGGKEHERITDVLDQKNYVEELNRHLSCTVGDLQTKIDGLEKTNSKLQEELSAATDRICSLQEEQQQLREQNELIRERSEKSVEITKQDTKVELETYKQTRQGLDEMYSDVWKQLKEEKKVRLELEKELELQIGMKTEMEIAMKLLEKDTHEKQDTLVALRQQLEEVKAINLQMFHKAQNAESSLQQKNEAITSFEGKTNQVMSSMKQMEERLQHSERARQGAEERSHKLQQELGGRIGALQLQLSQLHEQCSSLEKELKSEKEQRQALQRELQHEKDTSSLLRMELQQVEGLKKELRELQDEKAELQKICEEQEQALQEMGLHLSQSKLKMEDIKEVNQALKGHAWLKDDEATHCRQCEKEFSISRRKHHCRNCGHIFCNTCSSNELALPSYPKPVRVCDSCHTLLLQRCSSTAS”, which protein production is on record?
**A.** The protein production was “not failed”.

**Q.** For “MMETTAGDTLQQFVTAPVRTATYKRLLYLLLAFPLGVAYFVAFTTGSSLGLGLAFTLVGLPVLLVTLVATTGAAGLEARLATVLLDQEVATPPSPRETLDSDDGYLAAVWRFATEPTTWTSVAVVLLKFVYGIVAFVVTITGTALVGTLLAAPFVYDDPGVNYQFGQYAVSTLPEAIGVATVGVAGIWILCNVINVVAAAGGLMTDAFLSVGRERAA”, which protein production is on record?
**A.** Its protein production is “failed”.

**Q.** With “MMGIMSDPITILDSSDSLSRLSSESVGRLVVHRKDDLDIFPVNFVLDYSAEQPRVYFRTAEGTKLFSVNLNSDVLFEVDRFDDAEGWSVVLKGNAYVVRDTEEARHADTLGLKPWLPTLKYNFVRIDVREVSGRAFVFGEEPERY” as the sequence, how does the protein production read?
**A.** The protein production was “not failed”.

**Q.** With “MMGRVAMLTGSRGLRYATVIALVAALVGGVYVLSSTGNKRTIVGYFTSAVGLYPGDQVRVLGVPVGEIDMIEPRSSDVKITMSVSKDVKVPVDVQAVIMSPNLVAARFIQLTPVYTGGAVLPDNGRIDLDRTAVPVEWDEVKEGLTRLAADLSPAAGELQGPLGAAINQAADTLDGNGDSLHNALRELAQVAGRLGDSRGDIFGTVKNLQVLVDALSESDEQIVQFAGHVASVSQVLADSSANLDQTLGTLNQALSDIRGFLRENNSTLIETVNQLNDFAQTLSDQSENIEQVLHVAGPGITNFYNIYDPAQGTLNGLLSIPNFANPVQFICGGSFDTAAGPSAPDYYRRAEICRERLGPVLRRLTVNYPPIMFHPLNTITAYKGQIIYDTPATEAKSETPVPELTWVPAGGGAPVGNPADLQSLLVPPAPGPAPAPPAPGAGPGEHGGGG” as the sequence, how does the protein production read?
**A.** The protein production was “failed”.

**Q.** For “MMIARTLSIFIGTLLLATCSIPTRLNIPTIAITDHPKYKLLLILIDGLRADALEHGQAPQLARLASDGVHARWMTPSYPALTLPNAYTLITGLRPDHHGIVHNTMEDPLLGAFESERQEAISNGRWWGGEPIWVSAEHAGIRSATFLWPGSEASIAGTRPSRWYAYNKHISADTQITQALRWLNERGPDAPRLVILRFEQVNTAGDNFGPDSPQYAAAVNMIDSAIGRLIDSLRQHGKLTDTDVIVVSDQGIAPIPGDHAVPLERIVQLSDVHVVSDGQVLGITPLPGHESKVEAMVLGAHATYDCWRKQALPTHWHYGTHPRIPNIVCQMHEGWNALSAAQITKRNPLQMGGSSGFDPMLPSMRAVFLANGPSFMPNLLLNPINNVDIYPLLARLLGIAMAPNDGNPRALLQALRTSNTANGYTYSKRNALHLEHHHHHH”, which protein production is on record?
**A.** The protein production was “failed”.

**Q.** Which protein production does the source give for “MMIHMEYYLVVSTIMMFAGIYGFFTRRNTLAILISVELMLNATDINFAVFNRFLFPGELEGYFFALFSIAISAAETAIAIAIMINIYRNIRSIQVKNLDELKW” here?
**A.** Its protein production is “failed”.

**Q.** Which protein production does the source give for “MMIKASTNEFRFCFKQMNKSQHELVLGWIHQPHINEWLHGDGLSNTIKDLHEFLNDGKPWATHWIAYDNEIPFAYLITSEIEKSEEYPDGAVTLDLFICRLDYIGKGLSVQMIHEFILSQFSDTKIVLINPEISNERAVHVYKKAGFEIIGEFIASWHPVPHYKMKLCIEDLKKQRLSA” here?
**A.** The protein production was “not failed”.

**Q.** For “MMIVDPKYCSLHPVDLAIVRKVLKITDGNFVITNAEGNLLFKVKDPFFSLHEKRILMDGFGTKVLTLKGKIMTMHDRWLVFRGGSTEEVDLLYTVKRSNMVQITTKLDVFLADNIEQKKCDYRLEGVWLETSCFVYAGDSDIILAQMREKKTMQSVLFGKDNFCLTVNPNVDYAFIASLIVILFHQKDDIYPIESLWKRDITDFIC”, which protein production is on record?
**A.** The protein production was “failed”.

**Q.** With “MMKAYQREFIEFALEKQVLKFGEFTLKSGRKSPYFFNAGLFNTGRDLARLGRFYAAALVDSGIEFDVLFGPAYKGIPIATTTAVALADHHDVDTPYCFNRKEAKNHGEGGNLVGSKLEGRVMLVDDVITAGTAIRESMELIQANKADLAGVLVAIDRQEKGKGELSAIQEVERDFGCAVISIVSLTDLITYLEQQGNNTEHLEAVKAYRAQYGI” as the sequence, how does the protein production read?
**A.** Its protein production is “not failed”.

**Q.** With “MMKETQQWTSKIGFVLAAAGAAVGLGAIWKFPYVAGNGGGGAFFLVFLLLTLFIGMPLLIAEFVIGRSTQKEAVTAYKVLVPNSKLYPWIGRMGVVTCFSVLSFYSVVGGWILLYLYYSVTGSFWNGAADYGQLFGETISNPLSAIGAQFIFMLCTIFVVSKGVEKGIEKASKYMMPLLFILFIAIIVRALTLDGAFAGVEFFLKPDFSKLTADTILYAMGQSFFSLTVGASVMVTYSSYLKKEEHLAKSATSIVSLTVFVTVLAGLAIFPAIFALGVKPTEGPGLLFIVLPAVFAKIPFGQFFFIMFLILFFFATLTSAISMLEIVVASVAKGNEKKRPSASLLIGILIFAVGIPSALSFGIMSDVKIFGKTFFDLVDFSVSNVLLPLGVLAISLFVPNKMSKELLMKELEVTETKGKTLFNIWFFLLRYVIPVTVIIVFLNAIGVFKMFA” as the sequence, how does the protein production read?
**A.** Its protein production is “failed”.

**Q.** Which protein production does the source give for “MMKILGLIGGMSWESTIPYYRMINQHVKAQLGGLHSAKIILYSVDFHEIEQLQAKGDWQTAAQLLSNAAISLKHAGAEVIVVCTNTMHKVADDIEAACGLPLLHIADATAVQIKQQGIDKIGLLGTRYTMEQGFYRGRLTEKHGIEVITPDDTDREAVNRIIYEELCLGIISETSRDAYRRVIKKLEAQGVQGIIFGCTEITLLVNAQDASVPVFDTTAIHASAAADYALQ” here?
**A.** The protein production was “not failed”.

**Q.** With “MMKKAGLYIHIPFCLQKCNYCDFFSVRAGRFKNILSGHLSPFVLRLAEDIKIQADKYSINEWDTVYIGGGTPSLLSPDDLYYLSSQIPAAQKNPHREFTVEINPEDLTKDFLSAAVSGGINRFSVGIQSLNDEVLSACKRRGCRKMSLSALELLRSQKGLILSCDLIAGLNKQSLGILKDDIQTLLHFKPEHFSLYALCSNTKLPPEKDDEIAELWSYGKDILEKNSYNKYEVSNFSYKNLYKSIHNEKYWRLEDYIGVGPGAFGSIFFDRKVLHANAHANALRFSAIKNIEKWMTLKNRDEVYEYETIDEKEFIEEAFMMGLRLTEGIDRSFFKSRFGKDISVFAGKTISKWLDRNEAVLTEKRFYLTEKGFLYLNLFLQELFQEIDSLF” as the sequence, how does the protein production read?
**A.** The protein production was “failed”.

**Q.** Which protein production does the source give for “MMKKHMYRLGLFKALTLALLVLLSAFVPSVLANQSRKPANLDGTTTLQSILSSSHRSEENRQRDKYRHPTQTLSFFGLRPDMTVVELWPGSGWYTEILAPYLAAKGQLIVTNFAPNDSKIPTVVFQQKLATAFQQKLEANKEVFGKIRVALINPPQELTLAPDNSVDMVVTFRNIHNWVNAGYAEQVYAAAYKALKPGGILGVEEHRAKPGISLQESIKTGYMSEDGVIAAVEKVGFKLVGKSEINANPQDTKDYPGGVWALPPTLRQGQKDRQRLVAIGESDRMTLKFIKPEANINSGSNAK” here?
**A.** The protein production was “failed”.

**Q.** Which protein production does the source give for “MMKMDLKKEVKEEFIRFQRNEKTESIVYERLASIEKDESNRKVLRLISAEEKAHYATLKKYTETDVAPDKLRIAKYYWLARILGITFAIKLMESSEENAHHDYAKYTDYPDLRQLANEEEVHEQKLIGLINEERLEYMGSVVLGLNDALVEFTGALAGFTLALSDSRLIALTGSITGIAAALSMASSEYLSTKSEGGETKHPIKAAIYTGIAYIITVVALVAPFILIENVLIALGVMLAMALVIIALFNYYYSVARGESFRKRFTEMAVLSFSVAGISFLIGYALKTFTGIDA” here?
**A.** Its protein production is “failed”.

**Q.** For “MMKQNPILITGGTGTVGSRIASRLIKLGYRVRIASRKKGALADAEYVYFNWKYASSFTPALEQVKQIYLVAPVGVFDPAPYVLPFLKEAKRLGAKRVVMQSASVVSENGPVFGALHQAVREFPEWTVLRPSYFMQNFINVQHRMSIQTEGRITTASGEGKLGFIDADDIAETAVRALIDDVPHQTHHILTGPEALSYAEAAEIIGAAAGRRVEHVSISRSELQHKMEAGGLPADYAHFMAKLDEAISHGAEHRVTDTVKRVTGKEPRSLSEFAAAHAAYWTSFWTELEHHHHHH”, which protein production is on record?
**A.** Its protein production is “failed”.

**Q.** With “MMKTLSPLKASLFAILASSTVLVTTVSAEPSQECDHPRSEFHKRGDRMGHDGMHKMFEGLELTDTQKADIKKLFAEQRAARSDDKPTKEERLARRAEMHALITAATFDETQAKALIGAQQEKRQAQAIERMKMQNQIYNLLTPEQQAKFKARFEAHTGKEPRSLEHHHHHH” as the sequence, how does the protein production read?
**A.** The protein production was “failed”.

**Q.** Which protein production does the source give for “MMKTMDIIIPREFVSDDQYLLQKLCVVNNDFVKEGEILALIESSKSVIDVTSPADGYVYFFSDEGDIVSVGERLALLASTKEALQVEIENSNKNSQRRKESETKSEDVSLSGVRCSKKALLLMKQHNIDVGAFDGLGMVTAQDVEHYLSSREKAVKATVAPSSVNRQKIIILGGGGHSKVCIDILRQAQSFTIAGILDSIQDIGAEVLGIPVIGRDTMPELLKTRESGISLAVNGIGLIPDHRNRCKLFERLLEAGFHLPNLIHPKASIEPSAKLGEGNQIMAGAIIGSDVTVGNYCLINSGVVVSHDCIIDDHVHLAPGALLAGAVRVGRNSLIGMGVTIYAKVTIGSNVVIANGANVFHDVPDNTVVKI” here?
**A.** Its protein production is “failed”.

**Q.** With “MMLAGCQSEEETSQFLLACKYDAPATIAAMLDNGIDVDGQDKTGLSGLMVAAAENRRDVVELLLKRRAKPNLQTRQGVTALMLAAARGSDTAIIGDLLQAGASVNQTSIDKSTALMSAISDGGDVRNDYQHILAMKKPDAPVEEESTLDKIVGATAAKSLATGNRALMTEDMALQLAPGAFKKNVDEIVALLLKHGADVKAVNVSGESAFFLAVDHARSAETITTLANAGADTSLADKSGTTPLMLAAAGDDPDLVLALSASGVEVDKPNREGLTALQVAAGQGAPAVIAALAQRGAKVDQLSANDLSPLMLAVKMNNKANVEALLAAGASVNLSNKAGYTAIGYSRAGEVRQLLLAQHAELKGQAAHMAQSELQFCANAFADKLAYSDIARAVNNDTRPDIMRHQQSCPELGELTMLLGEFTFTPAGATYLGEPVTCKVSEYRKTFEVNCR” as the sequence, how does the protein production read?
**A.** Its protein production is “failed”.

**Q.** Which protein production does the source give for “MMLLQQFKKIITVLIQVLVIMGITYLGNVIQRYMHIPIAGSIVGLLLFFLLLQFKVIPAKWVNEGSNFFLTTMVFFFVPSVVGIMDVVPMINLNFILFFSMILLGTCCVALISGFIAEKMVKNKQDGNGVN” here?
**A.** The protein production was “failed”.

**Q.** Which protein production does the source give for “MMLSSNSFSLNLSNEDYIWPLEEDQEETTDSSGPMMLSPPLPEGACFNFEDRNTVYVHSRRPEDTPKSFELYSIPEDLALDSPFPSCEQTTFFTTKPDKSFLLDIKNSSPLNIGRMQNSRS” here?
**A.** Its protein production is “not failed”.

**Q.** Which protein production does the source give for “MMLYRYTQTKLAQIASELKQTGLWSATAPSVEAMASTAPFACDLMPFEQWLQFIFIPRMQALIDAGQALPSQIAIAPMAEHLWSEQAALAPLISTLNELDILLNEPRLEHHHHHH” here?
**A.** The protein production was “not failed”.

**Q.** Which protein production does the source give for “MMMIFAVLGIFDFLRGEDEGESLEKYLRKLEDLLEEEFDTLVRIAGFYAEEGDTREALDYLERAYRVASEMNDEELMAFALDSMGDVYLSDRKVKTAMEYFMEALRIYTSVNSPLRADLREKIKEVEKIREAMDIASINRLREESESGMPEVDLEVIEPLLNRLVDSVQSLTLYEAGSYEDSISQIMEAYQIARDIGDTSTEASLQLLLGLYSLKNEDFDESRRYLKKAEALFRKTNNELGLAVALVLLGTLDFIRNNADGVASSFRAAVEILQKLDEKELESVTLELLNTLYSF” here?
**A.** Its protein production is “failed”.

**Q.** Which protein production does the source give for “MMMLQGSKSGSEMEVTWEDQQNINIFSRLNNRVHDLDDDIKSAKEKCENLEDAGNELILADEEMVRFQIGEVFAHVPRDDVETKIEEMKEATCKSLEKLEQEKESIVTQMAALKKVLYAKFKDSINLEED” here?
**A.** Its protein production is “failed”.
